# According to paper PMC2655686:
# Target: TRF2BH (basic region + TRFH) (UniProt Q15554 45-289)
# Experiment: EMSA
# Chain of TRF2BH (basic region + TRFH) (Q15554 45-289): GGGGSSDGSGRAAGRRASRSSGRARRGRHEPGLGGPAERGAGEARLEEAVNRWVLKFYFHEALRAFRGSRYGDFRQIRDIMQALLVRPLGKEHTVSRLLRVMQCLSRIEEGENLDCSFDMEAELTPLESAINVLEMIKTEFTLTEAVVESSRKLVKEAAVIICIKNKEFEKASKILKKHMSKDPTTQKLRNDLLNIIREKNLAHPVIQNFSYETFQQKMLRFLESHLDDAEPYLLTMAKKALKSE
binder,measurement,value
TTAGGGTTAGGGTTAGGGTTAGGGTTAGGGTTAGGGTTAGGG (structured_DNA) [T7],binding result,binds
